The chains are these.
B1: NETO1 (parent)
chain: KTSLLDQLTNTSGTVIGVTSCIVI
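Note: lentivirally expressed fusions sorted by FACS into six bins by GFP to DsRed ratio, PSI derived from sequencing read proportions per bin multiplied by bin number.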

In the data set the parent is B1. The data set can be described thus: protein stability index of a GFP-peptide fusion (GPS, HEK-293T) (PSI 1-6); higher = more stable. The note with it: c terminus: a fixed tail appended.
On to KTSLLDQLTTTSGTVIGVTSCIVI [N10T], for which the protein stability index is 2.41.

For KTSLLDQLTFTSGTVIGVTSCIVI [N10F], the protein stability index turned out to be 2.3. To KTSLLDQLTVTSGTVIGVTSCIVI [N10V] belongs 3.24.

KTSLLDQLTRTSGTVIGVTSCIVI [N10R]: the protein stability index was 2.53. Then KTSLLDQLTATSGTVIGVTSCIVI [N10A], with 2.13; and KTSLLDQLTWTSGTVIGVTSCIVI [N10W], with 3.97.

As for KTSLLDQLTHTSGTVIGVTSCIVI [N10H], the protein stability index was found to be 2.78. KTSLLDQLTPTSGTVIGVTSCIVI [N10P]: the protein stability index was 2.96.

Take KTSLLDQLTYTSGTVIGVTSCIVI [N10Y]: the protein stability index was determined as 2.62. Turning to KTSLLDQLTSTSGTVIGVTSCIVI [N10S], the protein stability index came out at 2.76. To KTSLLDQLTKTSGTVIGVTSCIVI [N10K] belongs 3.15.

On to KTSLLDQLTQTSGTVIGVTSCIVI [N10Q], for which the protein stability index was found to be 2.33. Turning to KTSLLDQLTETSGTVIGVTSCIVI [N10E], the protein stability index stood at 3.35.

Regarding KTSLLDQLTITSGTVIGVTSCIVI [N10I], the protein stability index was 3.08. Then KTSLLDQLTCTSGTVIGVTSCIVI [N10C], with 2.71; and KTSLLDQLTGTSGTVIGVTSCIVI [N10G], with 3.19; and KTSLLDQLTMTSGTVIGVTSCIVI [N10M], with 3.51. Take KTSLLDQLTLTSGTVIGVTSCIVI [N10L]: the protein stability index worked out at 3.8. To KTSLLDQLTDTSGTVIGVTSCIVI [N10D] belongs 2.47; to KTSLLDQLTNTEGTVIGVTSCIVI [S12E], 2.87. To KTSLLDQLTNTWGTVIGVTSCIVI [S12W] belongs 1.75; to KTSLLDQLTNTIGTVIGVTSCIVI [S12I], 2.89.

KTSLLDQLTNTTGTVIGVTSCIVI [S12T]: the protein stability index was determined as 2.78. Regarding KTSLLDQLTNTLGTVIGVTSCIVI [S12L], the protein stability index was found to be 2.43. Then KTSLLDQLTNTFGTVIGVTSCIVI [S12F], with 2.37; and KTSLLDQLTNTHGTVIGVTSCIVI [S12H], with 2.69. Consider KTSLLDQLTNTAGTVIGVTSCIVI [S12A], for which the protein stability index worked out at 2.96.

Consider KTSLLDQLTNTYGTVIGVTSCIVI [S12Y], for which the protein stability index was determined as 3.62. Turning to KTSLLDQLTNTGGTVIGVTSCIVI [S12G], the protein stability index was 3.53.

Turning to KTSLLDQLTNTNGTVIGVTSCIVI [S12N], the protein stability index was determined as 3.41.

Regarding KTSLLDQLTNTKGTVIGVTSCIVI [S12K], the protein stability index was found to be 2.89. Take KTSLLDQLTNTPGTVIGVTSCIVI [S12P]: the protein stability index stood at 2.51. On to KTSLLDQLTNTDGTVIGVTSCIVI [S12D], for which the protein stability index was determined as 3.07.

Regarding KTSLLDQLTNTMGTVIGVTSCIVI [S12M], the protein stability index came out at 1.87.

As to KTSLLDQLTNTQGTVIGVTSCIVI [S12Q], the protein stability index amounted to 2.56. Then KTSLLDQLTNTVGTVIGVTSCIVI [S12V], with 3.35. As for KTSLLDQLTNGSGTVIGVTSCIVI [T11G], the protein stability index was found to be 2.93. Turning to KTSLLDQLTNISGTVIGVTSCIVI [T11I], the protein stability index was 2.52. Then KTSLLDQLTNPSGTVIGVTSCIVI [T11P], with 3.64. To KTSLLDQLTNASGTVIGVTSCIVI [T11A] belongs 3.75; to KTSLLDQLTNYSGTVIGVTSCIVI [T11Y], 2.33. Then KTSLLDQLTNFSGTVIGVTSCIVI [T11F], with 2.35; and KTSLLDQLTNKSGTVIGVTSCIVI [T11K], with 3.11; and KTSLLDQLTNQSGTVIGVTSCIVI [T11Q], with 2.81. With KTSLLDQLTNVSGTVIGVTSCIVI [T11V], the protein stability index was 2.65. In the case of KTSLLDQLTNNSGTVIGVTSCIVI [T11N], the protein stability index came out at 2.29.

As to KTSLLDQLTNRSGTVIGVTSCIVI [T11R], the protein stability index was 1.74.

On to KTSLLDQLTNSSGTVIGVTSCIVI [T11S], for which the protein stability index worked out at 2.15. To KTSLLDQLTNHSGTVIGVTSCIVI [T11H] belongs 3.21; to KTSLLDQLTNDSGTVIGVTSCIVI [T11D], 3.42. For KTSLLDQLTNWSGTVIGVTSCIVI [T11W], the protein stability index stood at 3.6. To KTSLLDQLTNCSGTVIGVTSCIVI [T11C] belongs 3.13. To KTSLLDQLTNMSGTVIGVTSCIVI [T11M] belongs 3.29; to KTSLLDQLTNLSGTVIGVTSCIVI [T11L], 1.92. To KTSLLDQLTNESGTVIGVTSCIVI [T11E] belongs 5.03; to KTSLLDQLTNTSGTVDGVTSCIVI [I16D], 2.52. Turning to KTSLLDQLTNTSGTVEGVTSCIVI [I16E], the protein stability index is 2.85. Consider KTSLLDQLTNTSGTVHGVTSCIVI [I16H], for which the protein stability index amounted to 2.67.

As for KTSLLDQLTNTSGTVLGVTSCIVI [I16L], the protein stability index is 2.98. To KTSLLDQLTNTSGTVKGVTSCIVI [I16K] belongs 3.1; to KTSLLDQLTNTSGTVPGVTSCIVI [I16P], 2.76. To KTSLLDQLTNTSGTVFGVTSCIVI [I16F] belongs 3.68. Then KTSLLDQLTNTSGTVMGVTSCIVI [I16M], with 2.62; and KTSLLDQLTNTSGTVCGVTSCIVI [I16C], with 3.8.

Consider KTSLLDQLTNTSGTVNGVTSCIVI [I16N], for which the protein stability index came out at 2.27. To KTSLLDQLTNTSGTVAGVTSCIVI [I16A] belongs 2.44.

Turning to KTSLLDQLTNTSGTMIGVTSCIVI [V15M], the protein stability index came to 2.87. Turning to KTSLLDQLTNTSGTEIGVTSCIVI [V15E], the protein stability index was 2.04. On to KTSLLDQLTNTSGTTIGVTSCIVI [V15T], for which the protein stability index stood at 3.07. To KTSLLDQLTNTSGTFIGVTSCIVI [V15F] belongs 2.44; to KTSLLDQLTNTSGTSIGVTSCIVI [V15S], 2.96; to KTSLLDQLTNTSGTPIGVTSCIVI [V15P], 3.31.

For the variant KTSLLDQLTNTSGTNIGVTSCIVI [V15N], the protein stability index turned out to be 2.74. To KTSLLDQLTNTSGTGIGVTSCIVI [V15G] belongs 2.98. Regarding KTSLLDQLTNTSGTQIGVTSCIVI [V15Q], the protein stability index came to 2.33. For KTSLLDQLTNTSGTLIGVTSCIVI [V15L], the protein stability index worked out at 4.43.

Turning to KTSLLDQLTNTSGTAIGVTSCIVI [V15A], the protein stability index amounted to 2.65. To KTSLLDQLTNTSGTWIGVTSCIVI [V15W] belongs 2.59; to KTSLLDQLTNTSGTKIGVTSCIVI [V15K], 3.5; to KTSLLDQLTNTSGTRIGVTSCIVI [V15R], 2.45.

Turning to KTSLLDQLTNTSGTDIGVTSCIVI [V15D], the protein stability index was found to be 3.39. Then KTSLLDQLTNTSGTCIGVTSCIVI [V15C], with 2.06; and KTSLLDQLTNTSGTHIGVTSCIVI [V15H], with 1.99; and KTSLLDQLTNTSGTIIGVTSCIVI [V15I], with 3.08. Then KTSLLDQLTNTSGTYIGVTSCIVI [V15Y], with 3.74; and KTSLLDQLVNTSGTVIGVTSCIVI [T9V], with 2.63; and KTSLLDQLFNTSGTVIGVTSCIVI [T9F], with 2.37.

On to KTSLLDQLHNTSGTVIGVTSCIVI [T9H], for which the protein stability index was determined as 2.95. Turning to KTSLLDQLWNTSGTVIGVTSCIVI [T9W], the protein stability index was determined as 3.88. Then KTSLLDQLANTSGTVIGVTSCIVI [T9A], with 2.1; and KTSLLDQLKNTSGTVIGVTSCIVI [T9K], with 3.98. To KTSLLDQLRNTSGTVIGVTSCIVI [T9R] belongs 2.21; to KTSLLDQLYNTSGTVIGVTSCIVI [T9Y], 3.55; to KTSLLDQLLNTSGTVIGVTSCIVI [T9L], 3.09.

Values taken from the supplement of paper PMC10567573.
